Assays:
ob/ob mice [1] = assay: ob/ob mice treated with ZAG, 21 day study; assay type: in vivo, mouse
Experimental: FIG. 7A is a graphical diagram showing weight loss of the ob/ob mice during the 21 day study. ZAG was injected at days 1, 4, 5, 8, 13, 16, 18, and 19; PBS was injected at the same time points.
(§1) Animals—Mice. Homozygous obese (ob/ob) mice from the colony maintained at Aston University were used in the present study. The origin and characteristics of Aston ob/ob mice have been previously described. Male mice (20-21 weeks old, weight 90-100 g) were grouped into three per cage in an air conditioned room at 22±2° C. with a 12 h-light:12 h-dark cycle and fed a rat and mouse breeding diet (Special Diet Services, Witham, UK) and tap water ad libitum. They were administered ZAG (35 μg) in PBS (100 μl) b.d. by i.v. administration and body weight and food and water intake were monitored daily. Control mice received PBS alone. Body temperature was measured daily by the use of a rectal thermometer (RS Components, Northants, UK). All animal experiments were carried out in accordance with the U.K. Animals (Scientific Procedures) Act 1986.
After 21 days, the plasma metabolite levels in the ob/ob mice were observed (Table 2), with monitored parameters shown in Table 3. […] It was noted that there is much more insulin in the pancreas in ZAG treated animals showing the drop in plasma insulin, which is not due to lower insulin production (e.g., as would happen with a toxin to pancreatic beta cells), but rather due to the fact that less insulin is needed to control blood glucose in the ZAG treated animals.

ob/ob mice [2] = assay: ob/ob mice administered ZAG i.v. for 5 days (120 h): body weight, temperature, plasma metabolites, tissue weights; assay type: in vivo, mouse
Experimental: as §1
Serum Metabolite Determinations. Non-esterified fatty acids (NEFA) were determined using a Wako-ASC-ACOD kit (Wako Chemical GmbH, Neuss, Germany). Triglycerides were determined using a Triglyceride kit (Sigma Chemical Co., Poole, United Kingdom) and 3-hydroxybutyrate by a quantitative enzymatic determination kit (Sigma). Glucose was measured using a glucose analyser (Beckman, Irvine, Calif.) and glycerol was determined enzymatically using the method of Wieland as described in “Methods of Enzymatic Analysis” (Ed. Bergmeyer, H. U.) Vol. 3, pp1404-1409, published by Academic Press, London (1974).

[3] = system: β3-AR, β1-AR and β2-AR expression; assay: Western blot of β-AR expression in tissues of ob/ob mice after 5 days ZAG; assay type: in vivo, mouse
Experimental: Western Blot Analysis. WAT, BAT, heart and gastrocnemius muscle were thawed, washed in PBS, and lysed in Phosphsafe™ Extraction reagent for 5 min at room temperature, followed by sonication at 4° C. The supernatant formed by centrifugation at 18,000 g for 5 min at 4° C. was used for Western blotting. Cytosolic protein (5 μg for UCP's and 20 μg for β-AR) was resolved on 12% sodium dodecylsulphate polyacrylamide gels by electrophoresis at 180V for about 1 h and transferred on to 0.45 μm nitrocellulose membranes, which had been blocked with 5% (w/v) non-fat dried milk (Marvel) in Tris-buffered saline, pH 7.5, at 4° C. overnight. Prior to adding the primary antibodies membranes were washed for 15 min in 0.1% Tween 20-buffered saline. Both primary and secondary antibodies were used at a dilution of 1:1000. Incubation was for 1 h at room temperature and development was by ECL. Blots were scanned by a densitometer to quantify differences.

human β2-AR = target: T1, human β2-AR (Homo sapiens, UniProt P07550); assay: Cyclic AMP production in CHO-K1 cells transfected with β2-AR; assay type: cell-based; conditions: CHO-K1 β2-AR
T1 construct: host or cells: CHO-K1
Experimental: Binding Studies and Cyclic AMP Determination. CHO-K1 cells transfected with the human β1- and β2-AR obtained from University of Nottingham, UK, while CHOK1 cells transfected with the β3-AR were obtained from Astra Zeneca, Macclesfield, Cheshire, UK. Gene expression was under the control of hygromycin, together with a β-gal reporter construct, selected for resistance to G418. They were maintained in DMEM supplemented with 2 mM glutamine, hygromycin B ([…]), G418 ([…]), and 10% FCS, under an atmosphere of 10% CO2 in air. To determine the effect of agonists on cyclic AMP production, cells were grown in 24-well plates containing 1 ml of nutrient medium.

[4] = system: epididymal adipocytes of male Wistar rats; assay: Uptake of 2-deoxy-D-glucose into epididymal adipocytes of ZAG-treated rats; assay type: in vivo, rat; conditions: rats treated for 10 days
Experimental: Glucose Uptake into Adipocytyes. Isolated adipocytes (5×10^4) were washed twice in 1 ml Krebs-Ringer bicarbonate buffer, pH 7.2 (KRBS) and further incubated for 10 min at room temperature in 0.5 ml KRBS containing 18.5 MBq 2-[1-^14C] deoxy-D-glucose and non-radioactive 2-deoxy-D-glucose to a final concentration of 0.1 mM. Uptake was terminated by the addition of 1 ml ice-cold glucose-free KRBS, and the cells were washed three times with 1 ml KRBS, lysed by addition of 0.5 ml 1M NaOH and left for at least 1 h at room temperature before the radioactivity was determined by liquid scintillation counting.

B1: ZAG: recombinant full length human zinc-α2-glycoprotein (SEQ ID NO: 1) secreted by transfected HEK293F cells; lipid mobilizing factor (protein, listed as Homo sapiens)
chain: QENQDGRYSLTYIYTGLSKHVEDVPAFQALGSLNDLQFFRYNSKDRKSQPMGLWRQVEGMEDWKEDSQLQKAREDMETLKDIVEYYNDSNGSHVLQGRFGCEIENNRSSGAFWKYYYDGKDYIEFNKEIPAWVPFDPAAQITKQKWEAEPVYVQRAKAYLEEECPATLRKYLKYSKNILDRQDPPSVVVTSHQAPGEKKKLKCLAYDFYPGKIDVHWTRAGQVQEPELRGDVLHNGNGTYQSWVVVAVPPQDTAPYSCHVQHSSLAQPLVVPWEAS
In the case of B1, the “weight of the gastrocnemius muscles” value (ob/ob mice [1]; ob/ob mice) is reported as 0.7 ± 0.1 g, the “weight of brown adipose tissue” value (ob/ob mice [1]; ob/ob mice (FIG. 7)) is reported as 0.52 ± 0.08 g and the BAT weight (ob/ob mice [1]; ob/ob mice, Day 21) is reported as 0.41 ± 0.35 g. For the same molecule, the Gastrocnemius weight (ob/ob mice [1]; ob/ob mice, Day 21) was 0.39 ± 0.12 g, the “Glucose (plasma)” value (ob/ob mice [1]; ob/ob mice, Day 21) was 15.2 ± 2.1 mmol/L and the “Glycerol (plasma)” value (ob/ob mice [1]; ob/ob mice, Day 21) was 450 ± 36.2. For the same molecule, the “Insulin (plasma)” value (ob/ob mice [1]; ob/ob mice, Day 21) was 28.5 ± 0.34 ng/mL, the “Insulin Pancreas” value (ob/ob mice [1]; ob/ob mice, Day 21) was 14.5 ± 2.5 pg/g pancerase and the “NEFA (plasma)” value (ob/ob mice [1]; ob/ob mice, Day 21) was 0.22 ± 0.06 mEq/l. The Soleus weight (ob/ob mice [1]; ob/ob mice, Day 21) was 0.18 ± 0.07 g, the “Triglycerides (plasma)” value (ob/ob mice [1]; ob/ob mice, Day 21) was 0.89 ± 0.08 mmol/L and the blood glucose (ob/ob mice [1]; ob/ob mice, Day 21) was 15.2 mM. For the same molecule, the Finish weight (ob/ob mice [1]; ob/ob mice, Day 21, in g) was 83.95 ± 2.2, the peak body temperature (ob/ob mice [1]; ob/ob mice, just before maximum weight loss) was 38.1 °C and the “oxygen uptake by BAT” value (ob/ob mice [2]; ob/ob mice after ZAG administration) was “three-fold increase”. The BAT weight (ob/ob mice [2]; ob/ob mice treated for 120 h) was 0.73 ± 0.12 p < 0.01 g, the Gastrocnemius weight (ob/ob mice [2]; ob/ob mice treated for 120 h) was 1.12 ± 0.14 p < 0.01 g and the “Glucose (plasma)” value (ob/ob mice [2]; ob/ob mice treated for 120 h) was 20.3 ± 0.8 p < 0.01 mmol/L. For the same molecule, the “Glycerol (plasma)” value (ob/ob mice [2]; ob/ob mice treated for 120 h) was 429 + 36 p < 0.001 μmol/L, the “Insulin (plasma)” value (ob/ob mice [2]; ob/ob mice treated for 120 h) was 26.3 ± 0.52 p < 0.001 ng/mL and the “Insulin Pancreas” value (ob/ob mice [2]; ob/ob mice treated for 120 h) was 16.3 ± 3.1 p = 0.0042 pg/g pancerase. The “NEFA (plasma)” value (ob/ob mice [2]; ob/ob mice treated for 120 h) was 0.23 ± 0.05 p < 0.001 mEq/L, the Soleus weight (ob/ob mice [2]; ob/ob mice treated for 120 h) was 0.80 ± 0.09 p < 0.01 g and the “TG (plasma)” value (ob/ob mice [2]; ob/ob mice treated for 120 h) was 0.9 ± 0.1 p < 0.05 mmol/L. The “adverse effects after administration” value (ob/ob mice [2]; ob/ob mice, 35 μg i.v.) was “No adverse effects were observed”, the “decrease in plasma insulin levels” value (ob/ob mice [2]; ob/ob mice, 5 days) was 36% and the blood glucose (ob/ob mice [2]; ob/ob mice, Day 5 (value before the further drop)) was 2.03 mM. The “rise of body temperature” value (ob/ob mice [2]; ob/ob mice, after 4 days of ZAG) was 0.4 °C, the “weight difference between ZAG and PBS groups” value (ob/ob mice [2]; ob/ob mice, after 5 days) was 3.5 g and the “expression of β1-AR or β2-AR in gastrocnemius muscle or WAT” value [3] was “no change in expression”. For the same molecule, the “increase in β3-AR expression in BAT” value [3] was 89%, the “increase in β3-AR expression in WAT” value [3] was 85% and the “β3-AR expression in gastrocnemius muscle” value [3] was “two-fold increase”. The “concentration required to stimulate cyclic AMP production” value (human β2-AR) was 580 nM and the “uptake of 2-deoxyglucose into epididymal adipocytes” value [4] was “significant increase”.
